According to patent publication US9062353B2, “Electrically conductive polymer electrodes with incorporated viruses” (THE REGENTS OF THE UNIVERSITY OF CALIFORNIA, priority 2010, dated 2015):

Tests used:
Conditions in all cases: phage-displayed peptide
PSMA dimer = biological target: T1, PSMA dimer (Homo sapiens, UniProt Q04609); test: phage-based ELISA, binding to PSMA dimer
T1 construct: purchased Molecular Express, Inc
Experimental: (§1) A Nunc Maxisorp plate was coated with 10 μg/mL PSMA monomer or dimer protein for 1 h. The coating solution was removed, and the plate was blocked for 1 h with 0.2% BSA in PBS and washed 5 times with PT (300 μL/well). The wells were then incubated with phage displaying PSMA-binding peptides (100 μL/well) at the indicated concentrations for 1 h. After washing five times with PT, the plate was incubated with HRP-conjugated anti-M13 phage antibody (100 μL, 1:5000) in 0.1% PBT buffer for 30 min, and washed three times with PT, and twice with PBS. The plate was then developed using an o-phenylenediamine dihydrochloride/H2O2 solution (100 μL, 1 mg mL-1/0.02%) in citric acid buffer (50 mM citric acid, 50 mM Na2HPO4, pH 5.0), and the HRP activity was measured as absorbance at 450 nm.
The previously reported PSMA binding peptides, PSMA-1 (amino acid sequence, […] (SEQ ID NO:3)) and PSMA-2 (amino acid sequence, […] (SEQ ID NO:4)), were compared for affinity to the homodimeric and monomeric isoforms of PSMA. Details regarding PSMA-1 and PSMA-2 may be found in Yang, L. M. et al., Anal. Chem. 2006, 78, 3265-3270, which is incorporated by reference herein. Though diagnostically irrelevant, the monomeric isoform of PSMA provides a control for the binding specificity. […] Chosen for its specificity to the PSMA dimer, the PSMA-2 sequence provided the template for an affinity maturation library targeting the PSMA dimer.

PSMA monomer = biological target: T2, PSMA monomer (Homo sapiens, UniProt Q04609); test: phage-based ELISA, binding to PSMA monomer
T2 construct: purchased Molecular Express, Inc
T2 sequence (Q04609 whole entry): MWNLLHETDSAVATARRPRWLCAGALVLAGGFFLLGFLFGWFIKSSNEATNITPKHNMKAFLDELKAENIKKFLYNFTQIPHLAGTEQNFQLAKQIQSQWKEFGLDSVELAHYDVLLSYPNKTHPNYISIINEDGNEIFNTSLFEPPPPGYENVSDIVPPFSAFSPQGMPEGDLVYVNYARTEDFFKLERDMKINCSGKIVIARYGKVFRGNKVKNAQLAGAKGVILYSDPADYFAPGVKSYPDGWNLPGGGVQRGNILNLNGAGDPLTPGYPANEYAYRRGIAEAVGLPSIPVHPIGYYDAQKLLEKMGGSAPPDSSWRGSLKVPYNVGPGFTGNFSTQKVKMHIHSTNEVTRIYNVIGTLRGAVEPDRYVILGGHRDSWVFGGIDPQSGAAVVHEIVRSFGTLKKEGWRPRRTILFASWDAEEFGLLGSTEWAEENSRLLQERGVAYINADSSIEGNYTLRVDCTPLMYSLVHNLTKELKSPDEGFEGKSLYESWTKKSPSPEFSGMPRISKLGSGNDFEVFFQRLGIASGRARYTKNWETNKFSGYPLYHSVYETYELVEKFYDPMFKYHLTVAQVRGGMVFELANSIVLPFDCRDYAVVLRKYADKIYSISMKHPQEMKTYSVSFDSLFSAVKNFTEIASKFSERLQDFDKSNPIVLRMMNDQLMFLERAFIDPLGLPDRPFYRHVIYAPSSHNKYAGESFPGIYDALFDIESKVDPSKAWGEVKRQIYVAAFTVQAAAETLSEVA
Experimental: as §1
The previously reported PSMA binding peptides, PSMA-1 (amino acid sequence, […] (SEQ ID NO:3)) and PSMA-2 (amino acid sequence, […] (SEQ ID NO:4)), were compared for affinity to the homodimeric and monomeric isoforms of PSMA. Details regarding PSMA-1 and PSMA-2 may be found in Yang, L. M. et al., Anal. Chem. 2006, 78, 3265-3270, which is incorporated by reference herein. Though diagnostically irrelevant, the monomeric isoform of PSMA provides a control for the binding specificity. […]

TfR = TfR (Homo sapiens, UniProt P02786); test: binding specificity, transferrin receptor
TfR, sequence (P02786 whole entry, species assumed): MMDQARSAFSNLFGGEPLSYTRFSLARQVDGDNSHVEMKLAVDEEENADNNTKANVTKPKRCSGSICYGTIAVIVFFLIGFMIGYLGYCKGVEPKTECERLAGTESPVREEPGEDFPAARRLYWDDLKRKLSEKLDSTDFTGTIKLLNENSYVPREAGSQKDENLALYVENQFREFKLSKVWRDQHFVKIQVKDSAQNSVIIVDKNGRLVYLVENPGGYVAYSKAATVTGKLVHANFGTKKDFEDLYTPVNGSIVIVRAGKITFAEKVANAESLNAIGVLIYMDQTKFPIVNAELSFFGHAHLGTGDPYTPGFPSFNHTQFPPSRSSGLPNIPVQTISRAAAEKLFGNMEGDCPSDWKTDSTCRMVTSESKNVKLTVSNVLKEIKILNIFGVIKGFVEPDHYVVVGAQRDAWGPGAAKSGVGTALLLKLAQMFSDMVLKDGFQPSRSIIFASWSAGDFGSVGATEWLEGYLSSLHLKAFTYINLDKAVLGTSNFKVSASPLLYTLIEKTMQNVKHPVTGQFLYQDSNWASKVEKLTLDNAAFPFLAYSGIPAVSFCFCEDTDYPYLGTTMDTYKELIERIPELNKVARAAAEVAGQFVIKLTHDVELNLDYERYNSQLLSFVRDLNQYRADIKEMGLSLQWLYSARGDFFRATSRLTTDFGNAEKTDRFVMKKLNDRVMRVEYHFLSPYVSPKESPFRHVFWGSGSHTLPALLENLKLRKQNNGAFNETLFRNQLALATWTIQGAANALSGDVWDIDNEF

casein = test: binding specificity, casein

T1 sequence (Q04609 whole entry): as the sequence (Q04609 whole entry) above

CALCEFLG (displayed on M13 phage) [PSMA-1]
binding to PSMA dimer (PSMA dimer): binds to both isoforms of PSMA | binding to PSMA monomer (PSMA monomer): binds to both isoforms of PSMA

LDCVEVFQNSCDW (displayed on M13 phage) [PSMA-2]
binding to PSMA dimer (PSMA dimer): binds with high affinity and specificity to the PSMA dimer

SECVEVFQNSCDW (displayed on M13 phage) [PSMA-3]
binding to PSMA dimer (PSMA dimer): specific binding for the PSMA dimer | binding to PSMA monomer (PSMA monomer): not PSMA monomer | binding to TfR (TfR): not | binding to casein (casein): not
